Source: PMC5582856, “Inverted stereocontrol of iridoid synthase in snapdragon” (The Journal of Biological Chemistry, 2017)

Substrate: C/C(C=O)=C\CC/C(C)=C/C=O
Assay: purified protein
Assay type: biochemical, Antirrhinum majus
Conditions: 50 μM NADPH fixed, 200 mM MOPS pH 7.0, 100 mM NaCl, 1% THF, 25 °C, 20 nM enzyme

B1: AmISY (Am18679), Antirrhinum majus iridoid synthase (Antirrhinum majus) (protein)
chain: MSWWYRRSIGETEQKRIEINGVSPTYQSVALIVGVTGIAGSGLAETLSFSDTPGGPWKVYGVARRPCPKWLAKLNVNYVQCDIANTDETYSKVAPLTDITHIFYVSWTGSEDVALNTLMFKNILDSVIPNAPNLKHVSLQTGIKYYWGNMAEMDSTNQPHECPFYENMPRLKQDNFYYNLEDLVYDSAVRKNGLSWSIHRPALIFGFSPCSMMNTVSTLCVYAAICKHENKPLVYTGTETSWTCLWDAVDSDLLAEHFLWAATVPNAKNQAFNINNGDVFKWKHMWKVLAKEFDIEAIGYEGKEPVLLEDLMKDKDSVWDEIVKKHDLVPTKLRDIAAFWLADVVFRNKETLCSMNKNKEFGFMGFRDTTKSFVSSINKMRDFKFIP
notes: GenBank record is one of MF281392-MF281395 (not assigned in the text)
**Q.** Which results are given for B1?
**A.** Km: 1.1 ± 0.1 µM; kcat: 0.72 ± 0.02 s⁻¹
